# Measurements taken from patent US20090023152A1 (published 2009).
# T1: RFX5 (human, UniProt P48382 2-616)
# T1 construct: also called RFX5 subunit of RFX
# T1 sequence (looked up): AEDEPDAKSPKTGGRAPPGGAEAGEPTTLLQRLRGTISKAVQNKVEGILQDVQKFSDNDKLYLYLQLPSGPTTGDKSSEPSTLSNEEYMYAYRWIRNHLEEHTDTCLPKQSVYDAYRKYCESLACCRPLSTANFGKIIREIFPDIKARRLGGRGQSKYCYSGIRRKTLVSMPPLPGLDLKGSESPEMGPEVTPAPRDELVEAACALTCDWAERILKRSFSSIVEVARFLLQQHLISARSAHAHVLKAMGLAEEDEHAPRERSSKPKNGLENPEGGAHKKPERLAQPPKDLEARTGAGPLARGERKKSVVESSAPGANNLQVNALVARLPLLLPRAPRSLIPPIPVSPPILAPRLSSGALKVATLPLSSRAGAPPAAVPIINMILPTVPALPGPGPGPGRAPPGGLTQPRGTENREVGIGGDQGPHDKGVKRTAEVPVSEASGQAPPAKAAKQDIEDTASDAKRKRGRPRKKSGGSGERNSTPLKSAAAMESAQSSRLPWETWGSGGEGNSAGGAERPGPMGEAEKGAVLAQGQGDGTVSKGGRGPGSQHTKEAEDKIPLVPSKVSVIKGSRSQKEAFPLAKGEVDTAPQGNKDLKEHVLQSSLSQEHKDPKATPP
# B1: RFXAP (other, human, UniProt O00287 1-272, looked up)
# chain: MEAQGVAEGAGPGAASGVPHPAALAPAAAPTLAPASVAAAASQFTLLVMQPCAGQDEAAAPGGSVGAGKPVRYLCEGAGDGEEEAGEDEADLLDTSDPPGGGESAASLEDLEDEETHSGGEGSSGGARRRGSGGGSMSKTCTYEGCSETTSQVAKQRKPWMCKKHRNKMYKDKYKKKKSDQALNCGGTASTGSAGNVKLEESADNILSIVKQRTGSFGDRPARPTLLEQVLNQKRLSLLRSPEVVQFLQKQQQLLNQQVLEQRQQQFPGTSM
# notes: also called RFXAP subunit of RFX
# Key:
# [1] = target: MHC-II enhanceosome assembled on the DRA promoter fragment (human) (UniProt P48382); assay: promoter pull-down from crude cell extracts, immunoblot
# RFX5 = target: T1, RFX5; assay: EMSA supershift of co-translated subunits on X box probe
# RFXAP = target: B1; assay: as above
Molecule,percent of the CIITA recruited [1],binding result (RFX5),binding result (RFXAP)
CIITA (wild type) (from UniProt P33076 1-1130),< 1%,,
B1,,binds,
"FLAG-RFXANK (other, In vitro translated) DYKDDDDKMELTQPAEDLIQTQQTPASELGDPEDPGEEAADGSDTVVLSLFPCTPEPVNPEPDASVSSPQAGSSLKHSTTLTNRQRGNEVSALPATLDSLSIHQLAAQGELDQLKEHLRKGDNLVNKPDERGFTPLIWASAFGEIETVRFLLEWGADPHILAKERESALSLASTGGYTDIVGLLLERDVDINIYDWNGGTPLLYAVRGNHVKCVEALLARGADLTTEADSGYTPMDLAVALGYRKVQQVIENHILKLFQSNLVPADPE",,binds,binds
